Km, stoichiometry N and kcat data for seven molecules are collected here from PMC10434055, “Functional Characterization of Small Alarmone Synthetase and Small Alarmone Hydrolase Proteins from Treponema denticola” (Microbiology Spectrum, 2023).

Read-outs that look alike come from different tables or passages of the source.

The subject of series [1] is T1, Tde-SAS1–246.
T1 construct: gene TDE1711; N-terminal catalytic domain, residues 1-246, TPR domain removed; pET28a recombinant in E. coli BL21(DE3), IMAC purified; recombinant MW 32,557 Da; homotetramer (SEC ~160 kDa)
Kind of series: AMP by-product quantified by Mono Q anion-exchange chromatography. The format is biochemical, Treponema denticola. The conditions noted are these: 5 mM ATP, 10 mM MgCl2, pH 8.8, 37 °C, no added alarmone.

In series [2] the test system is T2, Tde-SAS.
T2 construct: gene TDE1711; full length, 410 aa; pET28a recombinant in E. coli BL21(DE3), IMAC purified; recombinant MW 51,318 Da; homotetramer (SEC ~220 kDa)
Described as above. Format: biochemical, Treponema denticola. The conditions noted are these: 5 mM ATP, 10 mM MgCl2, pH 8.8, 37 °C, no added alarmone.

In series [3] the target is Tde-SAS_(1–246), catalytic domain of Treponema denticola small alarmone synthetase (Treponema denticola ATCC 35405). Put plainly: SEC; size-exclusion chromatography of the purified recombinant protein; oligomeric state from the apparent MW against the monomer's calculated MW; column and buffer not given.
Series [4] has as its target Treponema denticola small alarmone hydrolase Tde-SAH (TDE1690) (Treponema denticola ATCC 35405). The description is as above.
Series [5] has as its target Treponema denticola small alarmone synthetase Tde-SAS (TDE1711) (Treponema denticola ATCC 35405). The description is as above.
Substrate in series [6]: Nc1nc2c(ncn2[C@@H]2O[C@H](COP(=O)(O)O)[C@@H](OP(=O)(O)OP(=O)(O)O)[C@H]2O)c(=O)[nH]1
Put plainly: pyrophosphatase-coupled continuous spectrophotometric phosphate-release assay (EnzChek, MESG/PNP). The format is biochemical, Treponema denticola. The note with it: 1 mM MnCl2, pH 8.4, 37 °C.

Substrate in series [7]: Nc1nc2c(ncn2[C@@H]2O[C@H](COP(=O)(O)OP(=O)(O)O)[C@@H](OP(=O)(O)OP(=O)(O)O)[C@H]2O)c(=O)[nH]1
Described as above. Format: biochemical, Treponema denticola. The conditions noted are these: 1 mM MnCl2, pH 8.4, 37 °C.

Substrate in series [8]: Nc1nc2c(ncn2[C@@H]2O[C@H](COP(=O)(O)OP(=O)(O)OP(=O)(O)O)[C@@H](OP(=O)(O)OP(=O)(O)O)[C@H]2O)c(=O)[nH]1
The description is as above. Format: biochemical, Treponema denticola. The note with it: 1 mM MnCl2, pH 8.4, 37 °C.

One may read the Km as the substrate concentration at which the rate is half of its maximum. Consider `Nc1nc2c(ncn2[C@@H]2O[C@H](COP(=O)(O)OP(=O)(O)O)[C@@H](O)[C@H]2O)c(=O)[nH]1` [GDP], for which the Michaelis constant (Km) in series [1] (read-out: Km(GDP)) was determined as 1.03 ± 0.3 mM; in series [2] (read-out: Km(GDP)), 5.29 ± 2.61 mM.

For `Nc1nc2c(ncn2[C@@H]2O[C@H](COP(=O)(O)O)[C@@H](O)[C@H]2O)c(=O)[nH]1` [GMP], the Km came to 3.44 ± 0.6 mM in series [1] (read-out: Km(GMP)) and 11.7 ± 1.69 mM in series [2] (read-out: Km(GMP)).

On to `Nc1nc2c(ncn2[C@@H]2O[C@H](COP(=O)(O)OP(=O)(O)OP(=O)(O)O)[C@@H](O)[C@H]2O)c(=O)[nH]1` [GTP], for which the values for the Km in series [1] (read-out: Km(GTP)) and in series [2] (read-out: Km(GTP)) were 2.91 ± 0.75 mM and 6.09 ± 1.01 mM, respectively.

Broadly, the stoichiometry N is the number of molecules, sites or subunits per partner or assembly. As for “Tde-SAS_(1–246), catalytic domain of Treponema denticola small alarmone synthetase (domain or fragment)”, in series [3], the stoichiometry N was 4.

Turning to “Treponema denticola small alarmone hydrolase Tde-SAH (TDE1690) (enzyme)”, in series [4], the stoichiometry N is 2.

For “Treponema denticola small alarmone synthetase Tde-SAS (TDE1711) (enzyme)”, in series [5], the stoichiometry N was 4.

B1: Tde-SAH (Treponema denticola ATCC 35405) (protein)
chain: MLSFDSNKEFALTRDLGVLKGIYLAPYMQVATALIGKARHAGGNMFRHQVDTMAILIDYGYIDSVLLKASLIHDVIEDIEDFNVNEILSIDSESGQVYELVLEVTKKKGQEKTEYLKNIIKNGSEKAKILKCADRISNMISLGFVTDSEFIERYCNETELYIFPIALEVNFEMYKELMALVVSRRQYLVECGYLEERVKKMRKAR
notes: full length (205 aa in the introduction, 210 aa in the abstract); pET28a recombinant in E. coli BL21(DE3), IMAC purified; recombinant MW 27,091 Da; homodimer (SEC ~44 kDa)
In general, kcat refers to the number of substrate molecules converted per active site and unit of time at saturation. For B1, the results for the Km in series [6], in series [7] and in series [8] were 0.12 mM, 0.11 mM and 0.21 mM, respectively. Also, the turnover number (kcat) is 0.54 ± 0.04 s⁻¹ in series [6] and 0.79 ± 0.07 s⁻¹ in series [7].
